Consider one protein from ChEMBL document CHEMBL1146070, “Investigating the role of stereochemistry in the activity of anticancer acylfulvenes: synthesis, reductase-mediated bioactivation, and cellular toxicity” (J Med Chem, 2006).

Substrate in series [1]: CC1=C(CO)C2=C(C)C3(CC3)[C@@](C)(O)C(=O)C2=C1
The series can be described thus: (§1) Affinity towards rat NADP-dependent AOR, leukotriene B4 12-hydroxydehydrogenase.

Substrate in series [2]: CC1=CC2=C(C)C3(CC3)[C@@](C)(O)C(=O)C2=C1
The series is described as §1.

Substrate in series [3]: CC1=CC2=C(C)C3(CC3)[C@](C)(O)C(=O)C2=C1
The series is described as §1.

Substrate in series [4]: CC1=C(CO)C2=C(C)C3(CC3)[C@](C)(O)C(=O)C2=C1
Described as §1.

B1: Prostaglandin reductase 1 (Rattus norvegicus), P97584 (protein)
chain: MVQAKTWTLKKHFEGFPTDSNFELRTTELPPLNNGEVLLEALFLSVDPYMRVAAKKLKEGDSMMGEQVARVVESKNSAFPTGTIVVALLGWTSHSISDGNGLRKLPAEWPDKLPLSLALGTVGMPGLTAYFGLLDICGLKGGETVLVNAAAGAVGSVVGQIAKLKGCKVVGTAGSDEKVAYLKKLGFDVAFNYKTVKSLEEALRTASPDGYDCYFDNVGGEFSNTVILQMKTFGRIAICGAISQYNRTGPCPPGPSPEVIIYQQLRMEGFIVTRWQGEVRQKALTDLMNWVSEGKIRYHEYITEGFEKMPAAFMGMLKGDNLGKTIVKA
Turning to B1, the Km in series [1] stood at 213 µM; in series [2], 538 µM; in series [3] it was 465 µM; in series [4] it was 243 µM.
